# Test results as given in PMC5519287 (Cell reports, 2017).
# Biological target: the molecule itself
# Assay: single molecule analysis
protein,measurement,value
"EGFP-S1C 4KA (domain or fragment, UniProt Q13586 342-465, looked up) YAPEALQKWLQLTHEVEVQYYNIKKQNAEKQLLVAKEGAEAIAAARNTLFGTFHVAHSSSLDDVDHKILTAKQALSEVTAALRERLHRWQQIEILCGFQIVNNPGIHSLVAALNIDPSWMGSTR",stoichiometry N,2
